Measurements from patent publication US20200165312A1, “COSMETIC COMPOSITION FOR IMPROVING SKIN CONDITIONS COMPRISING FUSION PROTEIN INCLUDING SKIN PENETRATION ENHANCING PEPTIDE” (LG HOUSEHOLD & HEALTH CARE LTD., priority 2017, published 2020).

Assays:
[1] = system: human umbilical vein endothelial cells; assay: Endothelial cell proliferation, Cell Counter Kit-8; type: cell-based
Protocol: Specifically, human umbilical vein endothelial cells were inoculated onto a 96-well plate and cultured for 24 hours to obtain cultures at a density of 5,000 cells per well. The cultures were washed with PBS and cultured in a serum-free M199 medium for 16 hours. […] The cultures were obtained therefrom and a difference between proliferated amounts of cells was quantitively analyzed using the Cell Counter Kit-8 (Dojindo).
Specifically, human umbilical vein endothelial cells were inoculated onto a 96-well plate and cultured for 24 hours to obtain cultures at a density of 5,000 cells per well. The cultures were washed with PBS and cultured in a serum-free M199 medium for 16 hours. The cells were washed with PBS again and cultured in a serum-free M199 medium supplemented with 100 ng/mL T-Tβ4 or Tβ4 for one day. The cultures were obtained therefrom and a difference between proliferated amounts of cells was quantitively analyzed using the Cell Counter Kit-8 (Dojindo). Here, human umbilical vein endothelial cells cultured in a serum-free M199 medium without T-Tβ4 or Tβ4 were used as a control (Table 22).

[2] = Skin penetrability of growth factor fusion proteins (Franz glass cell, ELISA); type: in vitro ADME, porcine; conditions: for Penetrated amount (%): 2 μg, 16 hours; for skin penetrability compared with the unfused protein: summary of Tables 7, 12, 16, 20, 24
Protocol: (§1) Specifically, porcine skin (thickness: 0.7 mm, Medikinetics) was placed between upper and lower ends of Franz glass cell (standard diameter: 9 mm, Receiver 5 mL, Permegear), and TBS (50 mM Tris pH 7.5, 150 mM NaCl) including 1% BSA and 0.01% Tween 20 was prepared. Then, 500 μL of the TBS was applied to the upper end of the glass cell (Donor chamber), and 5 mL of the TBS was applied to the lower end of the glass cell, (Receiver chamber). Subsequently, 2 μg of PDGFa or T-PDGFa was applied to the upper end of the glass cell, followed by reaction for 16 hours. Then, a concentration of PDGFa or T-PDGFa was quantitatively analyzed using the ELISA kit (R&D Systems), and a relative amount of T-PDGFa to PDGFa was calculated as a penetrated amount (Table 7).
Specifically, porcine skin (thickness: 0.7 mm, Medikinetics) was placed between upper and lower ends of Franz glass cell (standard diameter: 9 mm, Receiver 5 mL, Permegear), and TBS (50 mM Tris pH 7.5, 150 mM NaCl) including 1% BSA and 0.01% Tween 20 was prepared. Then, 500 μL of the TBS was applied to the upper end of the glass cell (Donor chamber), and 5 mL of the TBS was applied to the lower end of the glass cell, (Receiver chamber).
as §1, with “IGF-1” for “PDGFa”, “T-IGF-1” for “T-PDGFa”, “16).” for “7).”
as §1, with “KGF” for “PDGFa”, “T-KGF” for “T-PDGFa”, “20).” for “7).”
as §1, with “Tβ4” for “PDGFa”, “T-Tβ4” for “T-PDGFa”, “24).” for “7).”

skin keratinocytes = assay: Keratinocyte growth (skin barrier strengthening), Cell Counter Kit-8; type: cell-based; conditions: for Production (%) (keratinocyte growth): 100 ng/mL T-KGF or KGF, one day, control = 100
Protocol: (§2) Specifically, skin keratinocytes were cultured in a 96-well plate for one day to obtain cultures at a density of 6,000 cells per well. The cultures were washed with PBS and cultured in a serum-free DMEM medium for one day. The cells were washed with PBS again and cultured in a serum-free DMEM medium supplemented with 100 ng/mL T-IGF-1 or IGF-1 for one day. The cultures were obtained therefrom and a difference between proliferated amounts of cells was quantitively analyzed using the Cell Counter Kit-8 (Dojindo). Here, skin keratinocytes cultured in a serum-free DMEM medium without T-IGF-1 or IGF-1 were used as a control (Table 14).
Specifically, skin keratinocytes were cultured in a 96-well plate for 24 hours to obtain cultures at a density of 6,000 cells per well.
as §2, with “The” for “Specifically, skin keratinocytes were cultured in a 96-well plate for one day to obtain cultures at a density of 6,000 cells per well. The”, “T-KGF” for “T-IGF-1”, “KGF” for “IGF-1”, “18).” for “14).”

Molecule	Proliferation (%) ([1]; 100 ng/mL T-VEGF or VEGF, serum-free M199, one day, control = 100)	cell proliferation effect compared with the unfused protein ([1]; human umbilical vein endothelial cells, 100 ng/mL)	Penetrated amount (%) ([2]; relative to VEGF)	skin penetrability compared with the unfused protein [2]	Production (%) (keratinocyte growth) (skin keratinocytes)	effect in keratinocyte growth test compared with the unfused protein (skin keratinocytes; skin keratinocytes, 100 ng/mL)	Penetrated amount (%) ([2]; relative to KGF)
T-VEGF: SEQ ID NO: 1 peptide C-terminal linked to N-terminal of VEGF via GG linker (protein, Synthetic Fusion protein of T-VEGF) NGSLNTHLAPILGGAPMAEGGGQNHHEVVKFMDVYQRSYCHPIETLVDIFQEYPDEIEYIFKPSCVPLMRCGGCCNDEGLECVPTEESNITMQIMRIKPHQGQHIGEMSFLQHNKCECRPKKDRARQENPCGPCSERRKHLFVQDPQTCKCSCKNTDSRCKARQLELNERTCRCDKPRR	185 ± 15%	same level	295 ± 21%	about three times higher			
T-KGF: SEQ ID NO: 1 peptide C-terminal linked to N-terminal of KGF via GG linker (protein, Synthetic Fusion protein of T-KGF) NGSLNTHLAPILGGCNDMTPEQMATNVNCSSPERHTRSYDYMEGGDIRVRRLFCRTQWYLRIDKRGKVKGTQEMKNNYNIMEIRTVAVGIVAIKGVESEFYLAMNKEGKLYAKKECNEDCNFKELILENHYNTYASAKWTHNGGEMFVALNQKGIPVRGKKTKKEQKTAHFLPMAIT				about three times higher	590 ± 27%	same level	310 ± 12%
KGF: keratinocyte growth factor having an amino acid sequence of SEQ ID NO: 44 (protein, Human KGF) CNDMTPEQMATNVNCSSPERHTRSYDYMEGGDIRVRRLFCRTQWYLRIDKRGKVKGTQEMKNNYNIMEIRTVAVGIVAIKGVESEFYLAMNKEGKLYAKKECNEDCNFKELILENHYNTYASAKWTHNGGEMFVALNQKGIPVRGKKTKKEQKTAHFLPMAIT					620 ± 25%		100 ± 18%
